Assay results as given in patent US20200207850A1 (MacroGenics, published 2020).
Like-named read-outs stand apart in the source and are kept apart here.

B1: 5T4 mAb 2/CD3 mAb 2/CD8 mAb 1 Tri-Specific Binding Molecule (other)
chain 1: DVLMTQTPLSLPVSLGDQASISCRSSQSIVYSNGNTYLEWYLQKPGQSPKLLIYKVSNRFSGVPDRFSGSGSGTDFTLKISRVEAEDLGVYYCFQGSHVPFTFGSGTKLEIKGGGSGGGGEVQLVESGGGLVQPGGSLRLSCAASGFTFSTYAMNWVRQAPGKGLEWVGRIRSKYNNYATYYADSVKGRFTISRDDSKNSLYLQMNSLKTEDTAVYYCVRHGNFGNSYVSWFAYWGQGTLVTVSSGGCGGGEVAALEKEVAALEKEVAALEKEVAALEKGGGDKTHTCPPCPAPEAAGGPSVFLFPPKPKDTLMISRTPEVTCVVVDVSHEDPEVKFNWYVDGVEVHNAKTKPREEQYNSTYRVVSVLTVLHQDWLNGKEYKCKVSNKALPAPIEKTISKAKGQPREPQVYTLPPSREEMTKNQVSLWCLVKGFYPSDIAVEWESNGQPENNYKTTPPVLDSDGSFFLYSKLTVDKSRWQQGNVFSCSVMHEALHNHYTQKSLSLSPGK
chain 2: QAVVTQEPSLTVSPGGTVTLTCRSSTGAVTTSNYANWVQQKPGQAPRGLIGGTNKRAPWTPARFSGSLLGGKAALTITGAQAEDEADYYCALWYSNLWVFGGGTKLTVLGGGGSGGGGQVQLQQPGAELVKPGASVKMSCKASGYTFTSYWITWVKQRPGQGLEWIGDIYPGSGRANYNEKFKSKATLTVDTSSSTAYMQLSSLTSEDSAVYNCARYGPLFTTVVDPNSYAMDYWGQGTSVTVSSGGCGGGKVAALKEKVAALKEKVAALKEKVAALKE
heavy: EVQLQQSGAELVKPGASVKLSCTASGFNIKDTYIHFVRQRPEQGLEWIGRIDPANDNTLYASKFQGKATITADTSSNTAYMHLCSLTSGDTAVYYCGRGYGYYVFDHWGQGTTLTVSSASTKGPSVFPLAPSSKSTSGGTAALGCLVKDYFPEPVTVSWNSGALTSGVHTFPAVLQSSGLYSLSSVVTVPSSSLGTQTYICNVNHKPSNTKVDKRVEPKSCDKTHTCPPCPAPEAAGGPSVFLFPPKPKDTLMISRTPEVTCVVVDVSHEDPEVKFNWYVDGVEVHNAKTKPREEQYNSTYRVVSVLTVLHQDWLNGKEYKCKVSNKALPAPIEKTISKAKGQPREPQVYTLPPSREEMTKNQVSLSCAVKGFYPSDIAVEWESNGQPENNYKTTPPVLDSDGSFFLVSKLTVDKSRWQQGNVFSCSVMHEALHNRYTQKSLSLSPGK
light: DVQINQSPSFLAASPGETITINCRTSRSISQYLAWYQEKPGKTNKLLIYSGSTLQSGIPSRFSGSGSGTDFTLTISGLEPEDFAMYYCQQHNENPLTFGAGTKLELRRTVAAPSVFIFPPSDEQLKSGTASVVCLLNNFYPREAKVQWKVDNALQSGNSQESVTEQDSKDSTYSLSSTLTLSKADYEKHKVYACEVTHQGLSSPVTKSFNRGEC
B2: 5T4 mAb 2/CD3 mAb 2/CD8 mAb 2 Tri-Specific Binding Molecule (other)
chain 1: DVLMTQTPLSLPVSLGDQASISCRSSQSIVYSNGNTYLEWYLQKPGQSPKLLIYKVSNRFSGVPDRFSGSGSGTDFTLKISRVEAEDLGVYYCFQGSHVPFTFGSGTKLEIKGGGSGGGGEVQLVESGGGLVQPGGSLRLSCAASGFTFSTYAMNWVRQAPGKGLEWVGRIRSKYNNYATYYADSVKGRFTISRDDSKNSLYLQMNSLKTEDTAVYYCVRHGNFGNSYVSWFAYWGQGTLVTVSSGGCGGGEVAALEKEVAALEKEVAALEKEVAALEKGGGDKTHTCPPCPAPEAAGGPSVFLFPPKPKDTLMISRTPEVTCVVVDVSHEDPEVKFNWYVDGVEVHNAKTKPREEQYNSTYRVVSVLTVLHQDWLNGKEYKCKVSNKALPAPIEKTISKAKGQPREPQVYTLPPSREEMTKNQVSLWCLVKGFYPSDIAVEWESNGQPENNYKTTPPVLDSDGSFFLYSKLTVDKSRWQQGNVFSCSVMHEALHNHYTQKSLSLSPGK
chain 2: QAVVTQEPSLTVSPGGTVTLTCRSSTGAVTTSNYANWVQQKPGQAPRGLIGGTNKRAPWTPARFSGSLLGGKAALTITGAQAEDEADYYCALWYSNLWVFGGGTKLTVLGGGGSGGGGQVQLQQPGAELVKPGASVKMSCKASGYTFTSYWITWVKQRPGQGLEWIGDIYPGSGRANYNEKFKSKATLTVDTSSSTAYMQLSSLTSEDSAVYNCARYGPLFTTVVDPNSYAMDYWGQGTSVTVSSGGCGGGKVAALKEKVAALKEKVAALKEKVAALKE
heavy: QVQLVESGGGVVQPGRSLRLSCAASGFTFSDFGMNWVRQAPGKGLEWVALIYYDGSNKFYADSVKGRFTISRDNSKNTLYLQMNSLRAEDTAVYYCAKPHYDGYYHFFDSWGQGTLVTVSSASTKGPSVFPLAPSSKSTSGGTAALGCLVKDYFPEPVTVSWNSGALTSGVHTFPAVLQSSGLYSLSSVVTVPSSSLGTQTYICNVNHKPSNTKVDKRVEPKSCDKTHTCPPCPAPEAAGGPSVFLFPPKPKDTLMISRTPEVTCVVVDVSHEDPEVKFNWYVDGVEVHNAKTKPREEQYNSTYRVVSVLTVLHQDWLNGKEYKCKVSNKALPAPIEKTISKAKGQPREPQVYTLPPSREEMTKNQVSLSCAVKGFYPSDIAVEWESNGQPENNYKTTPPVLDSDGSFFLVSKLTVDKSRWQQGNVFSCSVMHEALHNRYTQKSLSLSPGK
light: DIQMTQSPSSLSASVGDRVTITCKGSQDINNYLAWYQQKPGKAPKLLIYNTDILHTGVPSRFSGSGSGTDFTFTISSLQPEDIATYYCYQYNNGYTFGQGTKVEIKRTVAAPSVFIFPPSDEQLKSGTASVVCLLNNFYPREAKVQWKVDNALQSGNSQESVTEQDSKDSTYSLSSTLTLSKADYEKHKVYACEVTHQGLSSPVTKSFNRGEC
B3: HIV mAb 1/CD3 mAb 2/CD8 mAb 1 Tri-Specific Binding Molecule (other)
chain 1: DIVMTQSPDSLAVSPGERATIHCKSSQTLLYSSNNRHSIAWYQQRPGQPPKLLLYWASMRLSGVPDRFSGSGSGTDFTLTINNLQAEDVAIYYCHQYSSHPPTFGHGTRVEIKGGGSGGGGEVQLVESGGGLVQPGGSLRLSCAASGFTFSTYAMNWVRQAPGKGLEWVGRIRSKYNNYATYYADSVKGRFTISRDDSKNSLYLQMNSLKTEDTAVYYCVRHGNFGNSYVSWFAYWGQGTLVTVSSASTKGEVAACEKEVAALEKEVAALEKEVAALEKGGGDKTHTCPPCPAPEAAGGPSVFLFPPKPKDTLMISRTPEVTCVVVDVSHEDPEVKFNWYVDGVEVHNAKTKPREEQYNSTYRVVSVLTVLHQDWLNGKEYKCKVSNKALPAPIEKTISKAKGQPREPQVYTLPPSREEMTKNQVSLWCLVKGFYPSDIAVEWESNGQPENNYKTTPPVLDSDGSFFLYSKLTVDKSRWQQGNVFSCSVMHEALHNHYTQKSLSLSPGK
chain 2: QAVVTQEPSLTVSPGGTVTLTCRSSTGAVTTSNYANWVQQKPGQAPRGLIGGTNKRAPWTPARFSGSLLGGKAALTITGAQAEDEADYYCALWYSNLWVFGGGTKLTVLGGGGSGGGGQVQLVQSGGGVFKPGGSLRLSCEASGFTFTEYYMTWVRQAPGKGLEWLAYISKNGEYSKYSPSSNGRFTISRDNAKNSVFLQLDRLSADDTAVYYCARADGLTYFSELLQYIFDLWGQGARVTVSSASTKGKVAACKEKVAALKEKVAALKEKVAALKE
heavy: EVQLQQSGAELVKPGASVKLSCTASGFNIKDTYIHFVRQRPEQGLEWIGRIDPANDNTLYASKFQGKATITADTSSNTAYMHLCSLTSGDTAVYYCGRGYGYYVFDHWGQGTTLTVSSASTKGPSVFPLAPSSKSTSGGTAALGCLVKDYFPEPVTVSWNSGALTSGVHTFPAVLQSSGLYSLSSVVTVPSSSLGTQTYICNVNHKPSNTKVDKRVEPKSCDKTHTCPPCPAPEAAGGPSVFLFPPKPKDTLMISRTPEVTCVVVDVSHEDPEVKFNWYVDGVEVHNAKTKPREEQYNSTYRVVSVLTVLHQDWLNGKEYKCKVSNKALPAPIEKTISKAKGQPREPQVYTLPPSREEMTKNQVSLSCAVKGFYPSDIAVEWESNGQPENNYKTTPPVLDSDGSFFLVSKLTVDKSRWQQGNVFSCSVMHEALHNRYTQKSLSLSPG
light: DVQINQSPSFLAASPGETITINCRTSRSISQYLAWYQEKPGKTNKLLIYSGSTLQSGIPSRFSGSGSGTDFTLTISGLEPEDFAMYYCQQHNENPLTFGAGTKLELRRTVAAPSVFIFPPSDEQLKSGTASVVCLLNNFYPREAKVQWKVDNALQSGNSQESVTEQDSKDSTYSLSSTLTLSKADYEKHKVYACEVTHQGLSSPVTKSFNRGEC
B4: HIV mAb 2/CD3 mAb 2/CD8 mAb 1 Tri-Specific Binding Molecule (other)
chain 1: QSALTQPPSASGSPGQSVTISCTGTSSDVGGYNYVSWYQHHPGKAPKLIISEVNNRPSGVPDRFSGSKSGNTASLTVSGLQAEDEAEYYCSSYTDIHNFVFGGGTKLTVLGGGSGGGGEVQLVESGGGLVQPGGSLRLSCAASGFTFSTYAMNWVRQAPGKGLEWVGRIRSKYNNYATYYADSVKGRFTISRDDSKNSLYLQMNSLKTEDTAVYYCVRHGNFGNSYVSWFAYWGQGTLVTVSSASTKGEVAACEKEVAALEKEVAALEKEVAALEKGGGDKTHTCPPCPAPEAAGGPSVFLFPPKPKDTLMISRTPEVTCVVVDVSHEDPEVKFNWYVDGVEVHNAKTKPREEQYNSTYRVVSVLTVLHQDWLNGKEYKCKVSNKALPAPIEKTISKAKGQPREPQVYTLPPSREEMTKNQVSLWCLVKGFYPSDIAVEWESNGQPENNYKTTPPVLDSDGSFFLYSKLTVDKSRWQQGNVFSCSVMHEALHNHYTQKSLSLSPGK
chain 2: QAVVTQEPSLTVSPGGTVTLTCRSSTGAVTTSNYANWVQQKPGQAPRGLIGGTNKRAPWTPARFSGSLLGGKAALTITGAQAEDEADYYCALWYSNLWVFGGGTKLTVLGGGGSGGGGQVQLQESGPGLVKPSQTLSLSCTVSGGSSSSGAHYWSWIRQYPGKGLEWIGYIHYSGNTYYNPSLKSRITISQHTSENQFSLKLNSVTVADTAVYYCARGTRLRTLRNAFDIWGQGTLVTVSSASTKGKVAACKEKVAALKEKVAALKEKVAALKE
heavy: EVQLQQSGAELVKPGASVKLSCTASGFNIKDTYIHFVRQRPEQGLEWIGRIDPANDNTLYASKFQGKATITADTSSNTAYMHLCSLTSGDTAVYYCGRGYGYYVFDHWGQGTTLTVSSASTKGPSVFPLAPSSKSTSGGTAALGCLVKDYFPEPVTVSWNSGALTSGVHTFPAVLQSSGLYSLSSVVTVPSSSLGTQTYICNVNHKPSNTKVDKRVEPKSCDKTHTCPPCPAPEAAGGPSVFLFPPKPKDTLMISRTPEVTCVVVDVSHEDPEVKFNWYVDGVEVHNAKTKPREEQYNSTYRVVSVLTVLHQDWLNGKEYKCKVSNKALPAPIEKTISKAKGQPREPQVYTLPPSREEMTKNQVSLSCAVKGFYPSDIAVEWESNGQPENNYKTTPPVLDSDGSFFLVSKLTVDKSRWQQGNVFSCSVMHEALHNRYTQKSLSLSPG
light: DVQINQSPSFLAASPGETITINCRTSRSISQYLAWYQEKPGKTNKLLIYSGSTLQSGIPSRFSGSGSGTDFTLTISGLEPEDFAMYYCQQHNENPLTFGAGTKLELRRTVAAPSVFIFPPSDEQLKSGTASVVCLLNNFYPREAKVQWKVDNALQSGNSQESVTEQDSKDSTYSLSSTLTLSKADYEKHKVYACEVTHQGLSSPVTKSFNRGEC

What was measured:
[1] = molecular target: T1, CD8 on human T cells (PBMC) (human, UniProt P01732 22-235); experiment: flow cytometry on human PBMC, CD5+/CD4- gated cells (bear CD8 and CD3), detection anti-human Fc (MFI)
T1 construct: whole, on cells; The CD8+ (CD5+ CD4-) cells also carry CD3; also called CD5+ CD4- gated PBMC; CD8+ T cells
T1 sequence (P01732 22-235): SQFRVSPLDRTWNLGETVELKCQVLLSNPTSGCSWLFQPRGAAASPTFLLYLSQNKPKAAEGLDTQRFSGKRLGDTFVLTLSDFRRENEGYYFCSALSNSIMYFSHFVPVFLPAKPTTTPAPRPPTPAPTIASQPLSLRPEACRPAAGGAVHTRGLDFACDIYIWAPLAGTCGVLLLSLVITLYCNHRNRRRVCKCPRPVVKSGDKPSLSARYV

[2] = molecular target: T2, 5T4 on JIMT-1 target cells (UniProt Q13641 32-420, limits assumed); experiment: cell-based or functional assay
T2 sequence (looked up): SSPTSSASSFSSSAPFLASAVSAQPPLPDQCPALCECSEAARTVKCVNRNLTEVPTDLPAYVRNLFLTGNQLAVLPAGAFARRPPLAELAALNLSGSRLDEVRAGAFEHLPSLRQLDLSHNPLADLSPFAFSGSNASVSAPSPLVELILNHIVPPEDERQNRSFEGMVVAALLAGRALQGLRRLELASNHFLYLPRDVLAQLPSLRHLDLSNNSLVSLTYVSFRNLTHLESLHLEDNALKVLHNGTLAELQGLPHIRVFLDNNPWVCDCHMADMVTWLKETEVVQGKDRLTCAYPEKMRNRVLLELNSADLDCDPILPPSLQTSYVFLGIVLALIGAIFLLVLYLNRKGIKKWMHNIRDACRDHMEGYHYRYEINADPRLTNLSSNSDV

[3] = molecular target: HIV env on Jurkat 522 FY cells (HIV); experiment: cell-based or functional assay
[4] = molecular target: T1, CD8 on human T cells (PBMC); experiment: flow cytometry on human PBMC, CD5+/CD4- gated cells (bear CD8 and CD3), detection anti-human Fc (MFI); remark: listed apart in the source
Protocol: Human blood was lysed with ACK lysing buffer, washed 2× with PBS and re-suspended in FACS buffer contained 10% Human AB serum and incubated at room temperature for 20 minutes. Thereafter, the cells were pelleted by centrifugation and re-suspended (4×10⁶ cells/mL) in FACS buffer. 50 μL of serial titrated Tri-Specific Binding Molecules were added into wells of a 96-well deep plate. 50 μL of the cells (4×10⁶ cells/mL) well-mixed cells in FACS buffer containing 0.01% sodium azide were then added into corresponding wells and mixed thoroughly using a pipette. The plate was incubated in the dark for about 45 minutes at 2-8° C. At the end of incubation, the cells were washed twice by adding 300 μL of FACS buffer to each well, the plate was centrifuged at 1,200 rpm for 5 minutes, and the supernatant was discarded. The cell pellets were re-suspended in 100 μL mixture of goat anti-Human IgG Fcγ-PE, CD5-APC and CD4-PerCP5.5 prepared in FACS buffer containing 0.01% sodium azide, and the cells were incubated in the dark for about 45 minutes at 2-8° C. At the end of the incubation, the cells were washed, re-suspended with FACS buffer, and analyzed with a BD Caliber flow cytometer.

[5] = molecular target: HIV env on Jurkat 522 FY cells (HIV); experiment: cell-based or functional assay; remark: listed apart in the source

Row | Binder | EC50 (read off the curve) [1] [pM] | EC50 (nM) of killing, CD4+ effector cells, JIMT1-luc target cells, E:T 5:1 [2] [nM] | EC50 (nM) of killing, CD8+ effector cells, JIMT1-luc target cells, E:T 5:1 [2] [nM] | EC50 (nM) of killing, PanT effector cells, JIMT1-luc target cells, E:T 5:1 [2] [nM] | EC50, nM, % cytotoxicity (LDH), Jurkat Cells 522FY, CD4 effector cells [3] [nM] | EC50, nM, % cytotoxicity (LDH), Jurkat Cells 522FY, CD8 effector cells [3] [nM] | EC50, nM, % cytotoxicity (LDH), Jurkat Cells 522FY, Pan T effector cells [3] [nM] | EC50 (read off the curve) [4] [pM] | EC50 nM, % cytotoxicity (LDH), Jurkat Cells 522FY, E/T = 5:1 [5] [nM] | EC50 nM, % cytotoxicity (LDH), Jurkat Cells 522FY, E/T = 10:1 [5] [nM]
1 | B1 | ~2000 | 0.0435 | 0.0013 | 0.002 | – | – | – | – | – | –
2 | B2 | ~2000 | 0.0336 | 0.0015 | 0.0018 | – | – | – | – | – | –
3 | B3 | – | – | – | – | 0.36 | 0.00781 | 0.044 | ~800 | 0.00019 | 0.00029
4 | B4 | – | – | – | – | 0.45 | 0.0004 | 0.0015 | ~600 | 0.00032 | 0.00026
